Assays:
Test in all cases: two-hybrid; split-ubiquitin yeast two-hybrid (DUALhunter), S. cerevisiae NMY51; bait as Cub fusion, prey as NubG fusion; growth on SD-LWHA with 45 and 55 mM 3-AT, 28°C, and β-galactosidase activity (X-gal, ONPG)
[1] = biological target: Opuntia streptacantha SK3 dehydrin OpsDHN1, full-length version, split-ubiquitin fusion (Opuntia streptacantha)
[2] = biological target: OpsDHN1-S(ΔH)K3, version without the histidine-rich motif (residues 1-111/138-248), split-ubiquitin fusion (Opuntia streptacantha)
[3] = biological target: OpsDHN1-SK2, C-terminal truncated version (residues 1-199), split-ubiquitin fusion (Opuntia streptacantha)
[4] = biological target: SV40 LargeT antigen (Cub) (SV40)

Substance | β-galactosidase activity (two-hybrid reporter) (nmol ONP/min/mg protein) [1] | β-galactosidase activity (two-hybrid reporter) (nmol ONP/min/mg protein) [2] | β-galactosidase activity (two-hybrid reporter) (nmol ONP/min/mg protein) [3] | β-galactosidase activity (two-hybrid reporter) (nmol ONP/min/mg protein) [4]
OpsDHN1-SK2, C-terminal truncated version (residues 1-199), split-ubiquitin fusion (domain or fragment) | 146 |  |  | 
Opuntia streptacantha SK3 dehydrin OpsDHN1, full-length version, split-ubiquitin fusion (natural protein) | 462 | 70.5 | 142 | 
tumor suppressor Δp53 (NubG) (domain or fragment) |  |  |  | 656
